How the values were obtained:
[1] = target: recombinant wild-type cardiac troponin C (chicken) (UniProt P09860); test: native gel or EMSA
[2] = target: recombinant wild-type cardiac troponin T (rat) (UniProt P50753); test: native gel or EMSA

With “cTnI(131C), cardiac troponin I single-cysteine mutant C81I/C98S/Q131C labeled with AEDANS (from UniProt P48787 1-211) (natural protein)” the stoichiometry N [1] was 1 and the stoichiometry N [2] was 1.

“cTnI(151C), cardiac troponin I single-cysteine mutant C81I/C98S/S151C labeled with AEDANS (from UniProt P48787 1-211) (natural protein)” showed a stoichiometry N [1] of 1 and a stoichiometry N [2] of 1.

“cTnI(160C), cardiac troponin I single-cysteine mutant C81I/C98S/L160C labeled with AEDANS (from UniProt P48787 1-211) (natural protein)” was tested, and the stoichiometry N [1] was 1 and the stoichiometry N [2] was 1.

Work on “cTnI(167C), cardiac troponin I single-cysteine mutant C81I/C98S/S167C labeled with AEDANS (from UniProt P48787 1-211) (natural protein)” yielded a stoichiometry N [1] of 1 and a stoichiometry N [2] of 1.

“cTnI(188C), cardiac troponin I single-cysteine mutant C81I/C98S/E188C labeled with AEDANS (from UniProt P48787 1-211) (natural protein)” was tested, and the stoichiometry N [1] was 1 and the stoichiometry N [2] was 1.

For “cTnI(210C), cardiac troponin I single-cysteine mutant C81I/C98S/E210C labeled with AEDANS (from UniProt P48787 1-211) (natural protein)”, the stoichiometry N [1] was 1 and the stoichiometry N [2] was 1.

— paper PMC2599808
